In experiment [1] the target is T1, P-selectin expressed on the surface of CHO cells (CHO:P-selectin cell line) (UniProt P16109 42-830, limits assumed).
T1 construct: whole, on cells
T1 sequence (looked up): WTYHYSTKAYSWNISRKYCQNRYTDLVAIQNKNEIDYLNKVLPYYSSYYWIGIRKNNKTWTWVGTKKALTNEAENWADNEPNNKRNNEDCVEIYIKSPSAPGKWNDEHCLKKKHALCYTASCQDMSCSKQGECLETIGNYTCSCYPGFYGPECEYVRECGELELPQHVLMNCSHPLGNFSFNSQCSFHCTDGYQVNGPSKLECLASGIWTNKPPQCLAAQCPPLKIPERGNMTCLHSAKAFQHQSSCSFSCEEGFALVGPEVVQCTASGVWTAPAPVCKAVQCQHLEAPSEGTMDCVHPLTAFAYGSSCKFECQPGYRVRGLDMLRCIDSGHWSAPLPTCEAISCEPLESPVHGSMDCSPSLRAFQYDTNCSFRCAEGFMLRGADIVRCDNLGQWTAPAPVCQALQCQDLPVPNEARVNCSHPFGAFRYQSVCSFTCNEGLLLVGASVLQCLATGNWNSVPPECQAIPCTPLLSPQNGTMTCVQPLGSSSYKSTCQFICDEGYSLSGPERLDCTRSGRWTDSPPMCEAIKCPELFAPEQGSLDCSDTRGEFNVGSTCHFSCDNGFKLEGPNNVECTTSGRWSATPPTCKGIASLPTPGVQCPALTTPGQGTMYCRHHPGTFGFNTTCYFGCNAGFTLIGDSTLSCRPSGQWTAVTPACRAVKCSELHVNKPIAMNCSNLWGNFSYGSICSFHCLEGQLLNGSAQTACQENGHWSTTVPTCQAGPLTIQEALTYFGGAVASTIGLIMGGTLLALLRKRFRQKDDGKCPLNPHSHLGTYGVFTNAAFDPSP
The experiment can be described thus: adhesion of 3H-thymidine labeled CHO:P-selectin cells to transfected COS cells, scintillation counting.

For experiment [2], the target named is T1, P-selectin expressed on the surface of …. The experiment is described as follows: conditioned medium coated onto plastic dishes, binding of CHO:P-selectin cells; reference is sPSL.T7 without PACE.

B1: P-selectin ligand protein, full length, expressed on COS cells co-transfected with pMT21:PL85 and the 3/4FT gene (pEA.3/4FT) (ligand)
chain: QATEYEYLDYDFLPETEPPEMLRNSTDTTPLTGPGTPESTTVEPAARRSTGLDAGGAVTELTTELANMGNLSTDSAAMEIQTTQPAATEAQTTPLAATEAQTTRLTATEAQTTPLAATEAQTTPPAATEAQTTQPTGLEAQTTAPAAMEAQTTAPAAMEAQTTPPAAMEAQTTQTTAMEAQTTAPEATEAQTTQPTATEAQTTPLAAMEALSTEPSATEALSMEPTTKRGLFIPFSVSSVTHKGIPMAASNLSVNYPVGAPDHISVKQCLLAILILALVATIFFVCTVVLAVRLSRKGHMYPVRNYSPTEMVCISSLLPDGGEGPSATANGGLSKAKSPGLTPEPREDREGDDLTLHSFLP
modifications: glycoprotein made in cells co-expressing (α1,3/1,4) fucosyltransferase (3/4FT)
notes: also called PSL; protein encoded by pMT21:PL85
Take B1: the “fold binding of CHO:P-selectin cells relative to COS mock cells” value in experiment [1] was ~5.4 fold.

B2: sPSL.T7 co-expressed with 3/4FT and PACE (PACE-cleaved soluble P-selectin ligand) (ligand, not shown: large carriers)
chain: QATEYEYLDYDFLPETEPPEMLRNSTDTTPLTGPGTPESTTVEPAARRSTGLDAGGAVTELTTELANMGNLSTDSAAMEIQTTQPAATEAQTTPLAATEAQTTRLTATEAQTTPLAATEAQTTPPAATEAQTTQPTGLEAQTTAPAAMEAQTTAPAAMEAQTTPPAAMEAQTTQTTAMEAQTTAPEATEAQTTQPTATEAQTTPLAAMEALSTEPSATEALSMEPTTKRGLFIPFSVSSVTHKGIPMAASNLSV
modifications: glycoprotein made in cells co-expressing 3/4FT
notes: also called PACE-cleaved P-selectin ligand; sPSL.T7 from the CP/PSL-T7 (R4.1) CHO-PACE line
As to B2, the “fold increase in bound CHO:P-selectin cells against P-selectin ligand not co-expressed with PACE” value in experiment [2] was ~2 fold.
